Measured values: publication PMC8863895
pIC50: −log10 of the molar value. Read-outs that look alike come from different tables or passages of the source.

Legend:
C3b (human) = test: ELISA; decay acceleration assay: 250 ng C3b immobilised on Maxisorp; C3bBb formed with 400 ng Factor B and 25 ng Factor D, 2 h 37 °C; increasing concentrations of regulator, 40 min 37 °C; Bb remaining bound to C3b detected with anti-factor B polyclonal antibody
complement C5 [1] = test: ELISA; 5 µg/mL C3b or C5 immobilised on Maxisorp plates at 4 °C overnight; increasing concentrations of regulator (0.195-50 nM) in sample buffer (2% BSA in TBS, 0.05% Tween-20); detected with anti-His-tag antibodies; absorbance normalised to the highest concentration; IC50 from a 4PL nonlinear regression
complement C3b [2] = target: complement C3b (UniProt P01024); test: as above
complement C5 [3] = test: as above; remark: listed apart in the source
complement C3b [4] = target: complement C3b (UniProt P01024); test: as above; remark: listed apart in the source

Chain of human factor H, plasma-derived (hFH) (P08603 19-1231): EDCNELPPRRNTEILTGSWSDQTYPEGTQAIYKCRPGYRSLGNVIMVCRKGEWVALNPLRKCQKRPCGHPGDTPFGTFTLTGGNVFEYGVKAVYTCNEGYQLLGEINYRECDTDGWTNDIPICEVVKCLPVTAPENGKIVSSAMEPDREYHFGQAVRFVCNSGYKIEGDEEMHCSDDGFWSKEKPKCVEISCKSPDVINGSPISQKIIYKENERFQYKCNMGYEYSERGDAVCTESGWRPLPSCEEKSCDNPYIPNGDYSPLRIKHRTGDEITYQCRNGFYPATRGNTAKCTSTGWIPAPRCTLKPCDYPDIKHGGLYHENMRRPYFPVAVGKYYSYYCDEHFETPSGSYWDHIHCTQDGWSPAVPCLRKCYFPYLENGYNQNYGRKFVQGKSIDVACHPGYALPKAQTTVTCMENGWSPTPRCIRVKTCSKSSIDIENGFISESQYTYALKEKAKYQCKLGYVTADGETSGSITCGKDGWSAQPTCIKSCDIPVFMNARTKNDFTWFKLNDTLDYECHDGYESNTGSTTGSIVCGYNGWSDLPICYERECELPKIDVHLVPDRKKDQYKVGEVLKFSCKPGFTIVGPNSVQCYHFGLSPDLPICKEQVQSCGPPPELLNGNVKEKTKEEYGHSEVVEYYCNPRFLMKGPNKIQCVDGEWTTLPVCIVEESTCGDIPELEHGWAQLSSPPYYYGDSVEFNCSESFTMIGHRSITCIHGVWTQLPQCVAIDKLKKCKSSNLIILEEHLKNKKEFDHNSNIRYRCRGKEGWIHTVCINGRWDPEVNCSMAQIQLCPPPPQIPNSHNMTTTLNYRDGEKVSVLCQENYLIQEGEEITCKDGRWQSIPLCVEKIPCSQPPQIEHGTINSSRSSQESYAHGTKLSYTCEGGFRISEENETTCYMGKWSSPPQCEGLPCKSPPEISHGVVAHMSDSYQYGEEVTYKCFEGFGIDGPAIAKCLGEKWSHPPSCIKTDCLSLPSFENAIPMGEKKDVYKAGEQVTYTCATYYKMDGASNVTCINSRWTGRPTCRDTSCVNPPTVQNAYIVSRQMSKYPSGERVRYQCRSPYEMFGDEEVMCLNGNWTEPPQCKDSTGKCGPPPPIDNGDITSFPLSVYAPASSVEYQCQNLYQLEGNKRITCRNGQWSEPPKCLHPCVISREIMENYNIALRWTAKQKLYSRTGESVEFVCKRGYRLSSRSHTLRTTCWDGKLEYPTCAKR

MFHR1^I62 (FHR1_(1-2):FH1-4:FH_(19-20), isoleucine at position 193 = position 62 of factor H) (from UniProt Q03591 19-143; P08603 18-264; P08603 1107-1231)
pIC50 (C3b (human)): 8.11

MFHR1^I62 (FHR1_(1-2):FH1-4:FH_(19-20), variant with isoleucine at position 62 of factor H)
pIC50 (complement C5 [1]): 7.28 | pIC50 (complement C3b [2]): 7.79 | pIC50 (complement C5 [3]): 7.57 | pIC50 (complement C3b [4]): 8.33

MFHR1^V62 (FHR1_(1-2):FH1-4:FH_(19-20)) (from UniProt Q03591 19-143; P08603 18-264; P08603 1107-1231)
pIC50 (C3b (human)): 8.03

MFHR1^V62 (FHR1_(1-2):FH1-4:FH_(19-20), valine at position 62 of factor H)
pIC50 (complement C5 [3]): 7.57 | pIC50 (complement C3b [4]): 8.20

human factor H, plasma-derived (hFH) (from UniProt P08603 19-1231) (natural protein)
pIC50 (C3b (human)): 8.42
